Laboratory results as given in patent US20170218072A1.

Experiments:
HER2ex. [1] = target: HER2ex. (UniProt P04626); assay: SPR (Biacore X100); multi-cycle method, 0.05% Tween20-PBS; conditions: scFv
HER2ex. [2] = target: HER2ex. (UniProt P04626); assay: SPR (Biacore X100); multi-cycle method, 0.005% Tween20-PBS; conditions: scFv
HER2ex. [3] = target: HER2ex. (UniProt P04626); assay: SPR (Biacore X100); single cycle method, 0.05% Tween20-PBS, immobilized full-Ab

A Kd (HER2ex. [1]) of 0.0947 nM and a Kd (HER2ex. [2]) of 0.256 nM were found for Trastuzumab scFv in this work.
A Kd (HER2ex. [3]) of 3.56 nM was found for Trastuzumab full-body Ab in this work.
